Here are results for 2 molecules from patent publication US20150344580A1 (MSM PROTEIN TECHNOLOGIES, published 2015).

For one assay, the target named is T1, cyno CXCR3 (cynomolgus monkey, UniProt A0A2K5UV19 1-368).
T1 construct: whole, on cells; CHO cells
T1 sequence: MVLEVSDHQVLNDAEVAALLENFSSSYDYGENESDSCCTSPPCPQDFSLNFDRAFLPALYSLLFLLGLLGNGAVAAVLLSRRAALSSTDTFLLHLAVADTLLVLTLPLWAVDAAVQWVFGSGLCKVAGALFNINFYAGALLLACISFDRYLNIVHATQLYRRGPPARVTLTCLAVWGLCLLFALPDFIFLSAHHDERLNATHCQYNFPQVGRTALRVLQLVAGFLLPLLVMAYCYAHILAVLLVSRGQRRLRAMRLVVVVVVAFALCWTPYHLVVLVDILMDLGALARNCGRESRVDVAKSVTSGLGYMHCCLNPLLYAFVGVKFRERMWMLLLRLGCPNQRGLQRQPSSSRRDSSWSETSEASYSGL
Description: FACS, CHO-cyno CXCR3 cells. On the procedure: (§1) In more details, the cell staining procedure was: 5000-1000 cell suspension in 10 μl FACS buffer (1×PBS, 2.0% FBS, 0.2% sodium azide) was mixed with 10 μl of 200 nM the corresponding anti-CCR7 MAB and incubated on ice for 30 min. Washing step—after the incubation 150 μl of FACS buffer was added to the cell sample, the samples were mixed gently by up-down pipetting the cell suspension. Then the samples were centrifuged at 1100 rpm for 5 minutes, and supernatants were removed. Washing step was repeated ones. Then 10 μl of anti-human PE-(Fab)2 form Jackson Immuno Research Lab. #709-116-098 diluted 40 times in FACS buffer were added to the cells and the cells were re-suspended by up-down pipetting. After 20 min. incubation on ice in dark the washing step was repeated twice. The washed cells were mixed with 100 μl of FIX buffer (0.5% Paraformaldehyde solution in PBS). Fixed samples were stored in dark on ice and analyzed by FACS on Guava PCA-96 flow cytometer. The fluorescent signals collected from individual cells were obtained using fluorescence Activated Cell Sorter (FACS).
A general note: A flow cytometer gives signals particle by particle.

In a further assay the target is T2, human CCR3 (human, UniProt P51677 1-355).
T2 construct: whole, on cells; CHO cells
T2 sequence (looked up): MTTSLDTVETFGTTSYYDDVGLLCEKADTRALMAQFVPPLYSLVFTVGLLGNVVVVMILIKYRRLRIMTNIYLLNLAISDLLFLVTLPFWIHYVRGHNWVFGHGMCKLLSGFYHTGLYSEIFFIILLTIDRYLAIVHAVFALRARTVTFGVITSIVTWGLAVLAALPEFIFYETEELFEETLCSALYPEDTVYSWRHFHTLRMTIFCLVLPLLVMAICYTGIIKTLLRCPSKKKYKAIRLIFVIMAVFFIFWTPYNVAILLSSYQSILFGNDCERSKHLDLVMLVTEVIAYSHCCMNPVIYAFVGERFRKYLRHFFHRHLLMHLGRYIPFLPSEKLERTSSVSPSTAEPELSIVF
The assay can be described thus: FACS, CHO-human CCR3 cells. As to the method: as §1

The next assay concerns the target T3, human CCR4 (human, UniProt P51679 1-360).
T3 construct: whole, on cells; CHO cells
T3 sequence (looked up): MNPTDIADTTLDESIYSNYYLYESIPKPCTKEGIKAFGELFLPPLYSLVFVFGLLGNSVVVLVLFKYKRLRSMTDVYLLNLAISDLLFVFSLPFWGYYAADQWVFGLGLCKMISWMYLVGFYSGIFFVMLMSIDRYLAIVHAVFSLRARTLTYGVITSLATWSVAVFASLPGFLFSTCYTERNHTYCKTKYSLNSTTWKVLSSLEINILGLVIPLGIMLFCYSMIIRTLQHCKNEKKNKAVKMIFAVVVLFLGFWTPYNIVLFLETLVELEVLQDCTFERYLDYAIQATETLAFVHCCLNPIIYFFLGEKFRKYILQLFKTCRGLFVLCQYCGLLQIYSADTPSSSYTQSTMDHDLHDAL
Description: FACS, CHO-human CCR4 cells. On the procedure:
as §1, with “Washing” for “In more details, the cell staining procedure was: 5000-1000 cell suspension in 10 μl FACS buffer (1×PBS, 2.0% FBS, 0.2% sodium azide) was mixed with 10 μl of 200 nM the corresponding anti-CCR7 MAB and incubated on ice for 30 min. Washing”, “cytometer.” for “cytometer. The fluorescent signals collected from individual cells were obtained using fluorescence Activated Cell Sorter (FACS).”
In more details, the cell staining procedure was: […] cell suspension in 10 μl FACS buffer (1×PBS, 2.0% FBS, 0.2% sodium azide) was mixed with 10 μl of 200 nM the corresponding anti-CCR7 MAB and incubated on ice for 30 min. Washing step—after the incubation 150 μl of FACS buffer was added to the cell sample, the samples were mixed gently by up-down pipetting the cell suspension. […] Fixed samples were stored in dark on ice and analyzed by FACS on Guava PCA-96 flow cytometer. The fluorescent signals collected from individual cells were obtained using fluorescence Activated Cell Sorter (FACS).

For a further assay, the target named is T4, human CCR5 (human, UniProt P51681 1-352).
T4 construct: whole, on cells; CHO cells
Description: FACS, CHO-human CCR5 cells. As to the method:
as §1

For the next assay, the target named is T5, human CCR10 (human, UniProt P46092 1-362).
T5 construct: whole, on cells; CHO cells
T5 sequence (looked up): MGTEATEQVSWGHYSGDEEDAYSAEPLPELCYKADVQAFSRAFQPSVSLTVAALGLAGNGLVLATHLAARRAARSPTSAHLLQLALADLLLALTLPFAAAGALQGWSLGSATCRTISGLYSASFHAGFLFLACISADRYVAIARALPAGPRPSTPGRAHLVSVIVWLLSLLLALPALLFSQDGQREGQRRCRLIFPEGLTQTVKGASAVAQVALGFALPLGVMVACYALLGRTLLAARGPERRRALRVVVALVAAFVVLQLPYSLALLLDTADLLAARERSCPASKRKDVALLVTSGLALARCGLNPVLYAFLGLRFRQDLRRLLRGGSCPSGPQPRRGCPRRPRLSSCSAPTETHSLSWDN
Description: FACS, CHO-human CCR10 cells.

A further assay concerns the target T6, human CXCR1 (human, UniProt P25024 1-350).
T6 construct: whole, on cells; R1610 cells
T6 sequence (looked up): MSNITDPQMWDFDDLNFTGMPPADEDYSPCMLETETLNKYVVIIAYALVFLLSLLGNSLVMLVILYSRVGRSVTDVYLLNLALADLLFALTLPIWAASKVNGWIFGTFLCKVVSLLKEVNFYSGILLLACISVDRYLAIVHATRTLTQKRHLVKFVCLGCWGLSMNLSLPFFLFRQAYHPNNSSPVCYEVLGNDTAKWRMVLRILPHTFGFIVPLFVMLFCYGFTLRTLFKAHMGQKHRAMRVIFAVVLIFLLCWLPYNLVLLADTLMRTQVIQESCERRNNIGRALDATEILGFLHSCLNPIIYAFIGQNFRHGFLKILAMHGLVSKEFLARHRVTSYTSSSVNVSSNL
Description: FACS, R1610-human CXCR1 cells. As to the method: as §1

T4 sequence (P51681 whole entry): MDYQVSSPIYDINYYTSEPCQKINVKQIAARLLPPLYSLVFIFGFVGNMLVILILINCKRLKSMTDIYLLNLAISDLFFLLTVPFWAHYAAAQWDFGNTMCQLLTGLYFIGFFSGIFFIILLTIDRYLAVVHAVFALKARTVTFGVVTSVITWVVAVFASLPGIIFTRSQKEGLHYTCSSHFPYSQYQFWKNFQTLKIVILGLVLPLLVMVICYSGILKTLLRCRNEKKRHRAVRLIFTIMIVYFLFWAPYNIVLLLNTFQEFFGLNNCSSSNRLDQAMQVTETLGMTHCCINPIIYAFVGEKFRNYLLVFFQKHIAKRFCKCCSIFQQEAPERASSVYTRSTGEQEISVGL

B1: MSM-R710 (fully human anti-human CCR7 antibody, IgG1) (antibody, V domains shown)
VH: EVQLLESGGGLVQPGGSLRLSCAASGFTFSNYTMHWVRQAPGKGLEWVSGIGPRSGRTYYADSVKGRFTISRDNSKNTLYLQMNSLRAEDTAVYYCARSYAYQYRGFDYWGQGTLVTVSS
VL: EIVLTQSPGTLSLSPGERATLSCRASQSVSSSYLAWYQQKPGQAPRLLIYGASSRATGIPDRFSGSGSGTDFTLTISRLEPEDFAVYYCQSSVTFGQGTKVEIKR
notes: IgG1 format
Regarding B1, the binding result in the assay with cyno CXCR3, with human CCR3, in the assay with human CCR4, with human CCR5, with human CCR10 and in the assay with human CXCR1 was “no binding (tested: 200 nM MAB mixed 1:1 with cells)” throughout.

B2: MSM-R735 (fully human anti-human CCR7 antibody, IgG1) (antibody)
heavy: not shown
light: EIVLTQSPGTLSLSPGERATLSCRASQSVSSSYLAWYQQKPGQAPRLLIYGASSRATGIPDRFSGSGSGTDFTLTISRLEPEDFAVYYCQQGSPVTFGQGTKVEIKRTVAAPSVFIFPPSDEQLKSGTASVVCLLNNFYPREAKVQWKVDNALQSGNSQESVTEQDSKDSTYSLSSTLTLSKADYEKHKVYACEVTHQGLSSPVTKSFNRGEC
notes: IgG1 format; also called R735 Human IgG1
Turning to B2, the binding result with cyno CXCR3, in the assay with human CCR3, in the assay with human CCR4, in the assay with human CCR5, with human CCR10 and in the assay with human CXCR1 was “no binding (tested: 200 nM MAB mixed 1:1 with cells)” each time.
